Measured values taken from the Human Domainome abundance scans (Beltran et al. 2025).
± gives the uncertainty stated by the source.

B1: DnaJ homolog subfamily C member 2, residues 451 to 503; numbered along this chain, Q99543 (parent)
chain: SKNWSEDDLQLLIKAVNLFPAGTNSRWEVIANYMNIHSSSGVKRTAKDVIGKA

Variants of: B1
Test: abundance fitness (aPCA) (normalised: wild type 0, dead -1); higher = more abundant; growth selection in yeast, the domain comes from the species named
Settings: Homo sapiens

Variant | abundance fitness
SKNWSEDDLQLLIKAVNLFPAGTNSRWEVIANHMNIHSSSGVKRTAKDVIGKA [Y33H] | -0.414 ± 0.12
SKNWSEDDLQLLIKAVNLFPAGTNSRWEVIANIMNIHSSSGVKRTAKDVIGKA [Y33I] | -1.02 ± 0.2
SKNWSEDDLQLLIKAVNLFPAGTNSRWEVIANKMNIHSSSGVKRTAKDVIGKA [Y33K] | -0.568 ± 0.11
SKNWSEDDLQLLIKAVNLFPAGTNSRWEVIANLMNIHSSSGVKRTAKDVIGKA [Y33L] | -0.914 ± 0.077
SKNWSEDDLQLLIKAVNLFPAGTNSRWEVIANMMNIHSSSGVKRTAKDVIGKA [Y33M] | -0.882 ± 0.1
SKNWSEDDLQLLIKAVNLFPAGTNSRWEVIANNMNIHSSSGVKRTAKDVIGKA [Y33N] | -0.968 ± 0.14
SKNWSEDDLQLLIKAVNLFPAGTNSRWEVIANPMNIHSSSGVKRTAKDVIGKA [Y33P] | -0.938 ± 0.11
SKNWSEDDLQLLIKAVNLFPAGTNSRWEVIANQMNIHSSSGVKRTAKDVIGKA [Y33Q] | -0.746 ± 0.11
SKNWSEDDLQLLIKAVNLFPAGTNSRWEVIANRMNIHSSSGVKRTAKDVIGKA [Y33R] | -0.865 ± 0.067
SKNWSEDDLQLLIKAVNLFPAGTNSRWEVIANSMNIHSSSGVKRTAKDVIGKA [Y33S] | -0.87 ± 0.079
SKNWSEDDLQLLIKAVNLFPAGTNSRWEVIANTMNIHSSSGVKRTAKDVIGKA [Y33T] | -0.915 ± 0.097
SKNWSEDDLQLLIKAVNLFPAGTNSRWEVIANVMNIHSSSGVKRTAKDVIGKA [Y33V] | -0.847 ± 0.072
SKNWSEDDLQLLIKAVNLFPAGTNSRWEVIANWMNIHSSSGVKRTAKDVIGKA [Y33W] | -0.073 ± 0.066
SKNWSEDDLQLLIKAVNLFPAGTNSRWEVIANYANIHSSSGVKRTAKDVIGKA [M34A] | -0.895 ± 0.071
SKNWSEDDLQLLIKAVNLFPAGTNSRWEVIANYCNIHSSSGVKRTAKDVIGKA [M34C] | -0.136 ± 0.077
SKNWSEDDLQLLIKAVNLFPAGTNSRWEVIANYDNIHSSSGVKRTAKDVIGKA [M34D] | -0.833 ± 0.1
SKNWSEDDLQLLIKAVNLFPAGTNSRWEVIANYENIHSSSGVKRTAKDVIGKA [M34E] | -0.816 ± 0.086
SKNWSEDDLQLLIKAVNLFPAGTNSRWEVIANYFNIHSSSGVKRTAKDVIGKA [M34F] | -0.317 ± 0.11
SKNWSEDDLQLLIKAVNLFPAGTNSRWEVIANYGNIHSSSGVKRTAKDVIGKA [M34G] | -0.977 ± 0.062
SKNWSEDDLQLLIKAVNLFPAGTNSRWEVIANYHNIHSSSGVKRTAKDVIGKA [M34H] | -0.683 ± 0.12
SKNWSEDDLQLLIKAVNLFPAGTNSRWEVIANYINIHSSSGVKRTAKDVIGKA [M34I] | -0.011 ± 0.075
SKNWSEDDLQLLIKAVNLFPAGTNSRWEVIANYLNIHSSSGVKRTAKDVIGKA [M34L] | -0.056 ± 0.064
SKNWSEDDLQLLIKAVNLFPAGTNSRWEVIANYPNIHSSSGVKRTAKDVIGKA [M34P] | -0.553 ± 0.09
SKNWSEDDLQLLIKAVNLFPAGTNSRWEVIANYQNIHSSSGVKRTAKDVIGKA [M34Q] | -0.696 ± 0.14
SKNWSEDDLQLLIKAVNLFPAGTNSRWEVIANYRNIHSSSGVKRTAKDVIGKA [M34R] | -0.963 ± 0.065

Variant | abundance fitness
SKNWSEDDLQLLIKAVNLFPAGTNSRWEVIANYVNIHSSSGVKRTAKDVIGKA [M34V] | 0.003 ± 0.055
SKNWSEDDLQLLIKAVNLFPAGTNSRWEVIANYWNIHSSSGVKRTAKDVIGKA [M34W] | -0.666 ± 0.066
SKNWSEDDLQLLIKAVNLFPAGTNSRWEVIANYYNIHSSSGVKRTAKDVIGKA [M34Y] | -0.722 ± 0.094
SKNWSEDDLQLLIKAVNLFPAGTNSRWEVIANYMCIHSSSGVKRTAKDVIGKA [N35C] | -0.587 ± 0.081
SKNWSEDDLQLLIKAVNLFPAGTNSRWEVIANYMDIHSSSGVKRTAKDVIGKA [N35D] | -0.685 ± 0.096
SKNWSEDDLQLLIKAVNLFPAGTNSRWEVIANYMGIHSSSGVKRTAKDVIGKA [N35G] | -0.646 ± 0.057
SKNWSEDDLQLLIKAVNLFPAGTNSRWEVIANYMHIHSSSGVKRTAKDVIGKA [N35H] | -0.519 ± 0.12
SKNWSEDDLQLLIKAVNLFPAGTNSRWEVIANYMIIHSSSGVKRTAKDVIGKA [N35I] | -0.86 ± 0.13
SKNWSEDDLQLLIKAVNLFPAGTNSRWEVIANYMKIHSSSGVKRTAKDVIGKA [N35K] | -0.871 ± 0.12
SKNWSEDDLQLLIKAVNLFPAGTNSRWEVIANYMLIHSSSGVKRTAKDVIGKA [N35L] | -1.07 ± 0.1
SKNWSEDDLQLLIKAVNLFPAGTNSRWEVIANYMMIHSSSGVKRTAKDVIGKA [N35M] | -0.56 ± 0.079
SKNWSEDDLQLLIKAVNLFPAGTNSRWEVIANYMPIHSSSGVKRTAKDVIGKA [N35P] | -1.08 ± 0.13
SKNWSEDDLQLLIKAVNLFPAGTNSRWEVIANYMQIHSSSGVKRTAKDVIGKA [N35Q] | -0.558 ± 0.092
SKNWSEDDLQLLIKAVNLFPAGTNSRWEVIANYMRIHSSSGVKRTAKDVIGKA [N35R] | -0.59 ± 0.059
SKNWSEDDLQLLIKAVNLFPAGTNSRWEVIANYMSIHSSSGVKRTAKDVIGKA [N35S] | -0.186 ± 0.064
SKNWSEDDLQLLIKAVNLFPAGTNSRWEVIANYMTIHSSSGVKRTAKDVIGKA [N35T] | -0.345 ± 0.071
SKNWSEDDLQLLIKAVNLFPAGTNSRWEVIANYMVIHSSSGVKRTAKDVIGKA [N35V] | -0.815 ± 0.074
SKNWSEDDLQLLIKAVNLFPAGTNSRWEVIANYMWIHSSSGVKRTAKDVIGKA [N35W] | -0.897 ± 0.09
SKNWSEDDLQLLIKAVNLFPAGTNSRWEVIANYMYIHSSSGVKRTAKDVIGKA [N35Y] | -0.775 ± 0.13
SKNWSEDDLQLLIKAVNLFPAGTNSRWEVIANYMNCHSSSGVKRTAKDVIGKA [I36C] | 0.043 ± 0.068
SKNWSEDDLQLLIKAVNLFPAGTNSRWEVIANYMNFHSSSGVKRTAKDVIGKA [I36F] | -0.116 ± 0.086
SKNWSEDDLQLLIKAVNLFPAGTNSRWEVIANYMNGHSSSGVKRTAKDVIGKA [I36G] | -0.009 ± 0.053
SKNWSEDDLQLLIKAVNLFPAGTNSRWEVIANYMNHHSSSGVKRTAKDVIGKA [I36H] | -0.135 ± 0.12
SKNWSEDDLQLLIKAVNLFPAGTNSRWEVIANYMNKHSSSGVKRTAKDVIGKA [I36K] | 0.208 ± 0.086
SKNWSEDDLQLLIKAVNLFPAGTNSRWEVIANYMNLHSSSGVKRTAKDVIGKA [I36L] | 0.049 ± 0.059
